Results reported in the supplement of paper PMC9170038.

Tested on: K4 kissing-loop RNA reporter
Assay: apparent KD of K4 kissing-loop reporter; higher = weaker reporter binding
Conditions: Eterna round: R107
Method: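 RNA-MaP round R107: designed RNA switches with theophylline, tryptophan, arginine or FMN aptamers are transcribed on-chip within common flanks. They are titrated with a labelled K4 kissing-loop RNA reporter in RNA-MaP buffer (100 mM Tris pH 7.5, 80 mM KCl, 4 mM MgCl2), without ligand or with the indicated ligand. Median apparent KD per design.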

[1] = input ligand: theophylline 20 uM
[2] = input ligand: tryptophan 2.4 mM
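Also: bound reporter read as fluorescence of individual clusters on recovered sequencing chips by microscopy, with normalized cluster intensities fitted with a binding model.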

Sequence | apparent KD of K4 kissing-loop reporter (input ligand: FMN 200 uM) | apparent KD of K4 kissing-loop reporter (input ligand: arginine 13.2 mM) | apparent KD of K4 kissing-loop reporter (input ligand: none) | apparent KD of K4 kissing-loop reporter [1] | apparent KD of K4 kissing-loop reporter [2]
UCACUUAAAAGAAAUAGAAAUUCUAGAGAUACCAGCGACACUCUUCGCCCUUGGCAGCUCAAGUGGGACCCAGUGAUGUUGGGCG [Xeceteza] | 0.426 µM | 0.289 µM | 0.413 µM | 0.269 µM | 0.324 µM
UCAGUUCACGGGCGCCGCAAACCGCAGGAUACCAGUCACAUCGCUGACCCUUGGCAGCCUAUGGACUAGUGAUGUUAGUCCAGGA [theeternabot_sameState_KL_Theo_A_37] | 0.0985 µM | 0.0952 µM | 0.128 µM | 0.117 µM | 0.115 µM
UCCAGCAGUACUGAUACCAGACUGCAUGUAGUGAUGUUGCAUAAGGGCAUAGAUGUCUCAGUCCCUUGGCAGCAGUACUGUUGCA [Theo B SS t1] | 0.317 µM | 0.239 µM | 0.284 µM | 0.191 µM | 0.257 µM
UCCAUGCGCGCACGGUACUUGCCCGCAUAUCGAGGACCGGUACGGCCGCCACUCGUGCCAGUGAUGUUGGCCGGAGAGCCUUAUG [theeternabot_sameState_KL_Trp_A_22] | 0.476 µM | 0.349 µM | 0.475 µM | 0.449 µM | 0.524 µM
UCCUAGGCUCGAAAGAGCCUAGGAUGGACUCAGGAUAUCCGGAAACGGAGAAGGGAGUCACUAGUGAUGUUAGGGACUCCCUAAA | 0.0875 µM | 0.079 µM | 0.101 µM | 0.0703 µM | 0.0875 µM
UCCUGCAAUCAGCCACGAAAGUGGAUGGAUACCAGAGUCGAAAGACUCCCUUGGCAGCCAGUGAUGUUGGAAGCAGGUAAAUAAA | 0.583 µM | 0.501 µM | 0.761 µM | 0.343 µM | 1.29 µM
UCGAAGGAUGGAAGGAGCGCUCGUCAGUCCUGCGAGUGAUGUUCGUGGGUAAAUAGUCGCGAGCAGGUAGGUCGCCAUCUUGAGA [Lageso] | 0.11 µM | 0.0969 µM | 0.101 µM | 0.152 µM | 0.118 µM
UCGACAGUGAACGAUACCAGCGUCACGUGGCUGGUGGUCACAUGAGUGAUGUUCAUGUAACGCCCUUGGCAGCGUGCACGUAUCC [KL-XTheo-B9] | 0.234 µM | 0.206 µM | 0.22 µM | 0.199 µM | 0.199 µM
UCGCGUCUGCGAGGAUAUCGGAUUAGAGUGAUGUUCUAUAAACGCCCAGUGAUGUUGGAUGCGAUACGAGAAGGCGCUGGGCGCA [Same State FMN B GF8] | 0.178 µM | 0.28 µM | 0.203 µM | 0.321 µM | 0.167 µM
UCGGACCCUGGAGGAUAUGAGUCGAGUGAUGUUCGGCGGUCCAUGCUGGUGCGGCGUUAUGCCCUUUUAGAAGGCCAGGGUCCGA [#2 Exclusion - FMN B Attempt #12 (HarryS)] | 0.22 µM | 0.147 µM | 0.194 µM | 0.174 µM | 0.162 µM
UCGGACCCUGGAGGAUAUGAGUCUAGUGAUGUUAGGCGGUCCAUGCCGGUGCGGCGUUAUGCCCUUUUAGAAGGCCAGGGUCCGA [#2 Exclusion - FMN B Attempt #14 (HarryS)] | 0.143 µM | 0.0788 µM | 0.107 µM | 0.102 µM | 0.112 µM
UCGGAUGUUCUGUCGAGAUGAGCAAUAGCACGAGGACCGGUACGGCCGCCACUCGACCCAGUGAUGUUGGGUGGCUAAGUUCAGC [Geragean] | 0.265 µM | 0.239 µM | 0.208 µM | 0.285 µM | 0.147 µM
UCUAUAGUUAGAGGAUAUUGAAUUAGAGUGAUGUUCUAUAGAAGACCAGUGAUGUUGGAUAGUAUACAAGAAGGCUGAUCUAUAG [Same State FMN B GF 1] | 0.208 µM | 0.665 µM | 0.451 µM | 0.883 µM | 0.499 µM
UCUGCUGUAUAUGAUACCAGCAGUGAGAGACAGGAAGUAUAGUGAUGUUAUAUGAGAGAAUGCCCUUGGCAGCGUGUGCGGGUGG [SSTheophylB.Y] | 0.119 µM | 0.111 µM | 0.0817 µM | 0.119 µM | 0.0662 µM
UCUGCUGUAUAUGAUACCAGCAGUGAGAGACGAGAAGUAUAGUGAUGUUAUAUGAGAGAAUGCCCUUGGCAGCGUGUGCGUGUGG [SSTheophylB.aA] | 0.0963 µM | 0.0943 µM | 0.0744 µM | 0.102 µM | 0.0648 µM
UCUGGAGCAUAUGAUACCAGCAGUGAGAGACAGGAAGUAUAGUGAUGUUAUAUGAGAGAAUGCCCUUGGCAGCGUGUGCAGUGGC [SSTheophylB.P] | 0.104 µM | 0.0965 µM | 0.065 µM | 0.0949 µM | 0.0597 µM
UCUUUUGUAUAUGAUACCAGCAGUGAGAGACAGGAAGUAUAGUGAUGUUAUAUGAGAGAAUGCCCUUGGCAGCGUGUGCGGUGGG [SSTheophylB.U] | 0.151 µM | 0.146 µM | 0.114 µM | 0.178 µM | 0.108 µM
UCUUUUGUAUAUGAUACCAGCAGUGAGAGACAGGAAGUAUAGUGAUGUUAUAUGAGAGAAUGCCCUUGGCAGCGUGUGCGGUUGG [SSTheophylB.V] | 0.095 µM | 0.174 µM | 0.322 µM | 0.268 µM | 0.137 µM
UGAAAUCGAAUUCCGCGUGCAACGCCAGUAAAGGAUAUCAUCACACUGAGAAGGUUACGAAGCGGAGUGAUGUUCCGCUCUAUCC [theeternabot_sameState_KL_FMN_A_50] | 0.105 µM | 0.112 µM | 0.12 µM | 0.114 µM | 0.0985 µM
UGACAUUGCUCAGAUACCAGACUUGAGGAACACCCAAGUGCCAAAACGUACUAAAUAAAAGUCCCUUGGCAGCUGAGCAAUGUCU [TheoBX 13] | 0.0915 µM | 0.0306 µM | 0.0462 µM | 0.0609 µM | 0.0594 µM
UGACAUUGCUCAGAUACCAGACUUGAGGAUCACCCAGGUGCCAAACGUACAAUAAUAAAAGUCCCUUGGCAGCUGAGCAAUGUCU [TheoBX 14] | 0.0657 µM | 0.0517 µM | 0.0302 µM | 0.0699 µM | 0.0553 µM
UGACAUUGCUCAGAUACCAGACUUGAGGAUCACCCAGGUGCCAAAUAAACGUACAUAAAAGUCCCUUGGCAGCUGAGCAAUGUCU [TheoBX 11] | 0.0648 µM | 0.024 µM | 0.0559 µM | 0.0858 µM | 0.0765 µM
